Test results taken from publication PMC12309602, “NMR-guided identification of CYP11A1–Adrenodoxin interactions that differentially govern cholesterol and vitamin D3 metabolism” (The Journal of Biological Chemistry, 2025).

Experiments:
[1] = target: T1, bovine CYP11A1, wild type, mature, residues 41-520 (bovine, UniProt P00189 41-520); assay: cell-based or functional assay
T1 sequence (looked up): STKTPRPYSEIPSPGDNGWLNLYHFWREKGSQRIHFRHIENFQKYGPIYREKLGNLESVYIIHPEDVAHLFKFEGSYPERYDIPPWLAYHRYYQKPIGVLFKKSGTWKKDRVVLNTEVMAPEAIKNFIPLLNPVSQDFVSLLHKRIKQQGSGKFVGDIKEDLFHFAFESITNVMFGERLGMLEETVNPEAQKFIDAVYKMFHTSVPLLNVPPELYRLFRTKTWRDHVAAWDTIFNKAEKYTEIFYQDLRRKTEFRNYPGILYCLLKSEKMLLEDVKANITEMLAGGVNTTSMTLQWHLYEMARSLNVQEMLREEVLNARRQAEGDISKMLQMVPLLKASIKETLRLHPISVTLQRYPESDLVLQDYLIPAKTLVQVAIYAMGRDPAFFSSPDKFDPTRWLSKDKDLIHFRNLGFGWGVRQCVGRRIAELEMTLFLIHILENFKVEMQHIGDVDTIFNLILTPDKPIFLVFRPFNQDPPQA

[2] = target: T1, bovine CYP11A1, wild type, mature, …; assay: NMR titration; 2D 1H,15N-HSQC of 50 uM 15N-Adx with 0.25 to 1.0 equivalents of CYP11A1; 50 mM potassium phosphate, 50 mM NaCl, pH 7.2; peak intensity ratios; some samples with cholesterol or vitamin D3 in 25% HPCD added to the pre-formed complex; settings: both partners purified

B1: bovine Adrenodoxin M77L (natural protein)
chain: SSSEDKITVHFINRDGETLTTKGKIGDSLLDVVVQNNLDIDGFGACEGTLACSTCHLIFEQHIFEKLEAITDEENDLLDLAYGLTDRSRLGCQICLTKAMDNMTVRVPDAVSDARESIDMGMNSSKIE
modifications: uniform 15N labelling in the NMR samples
[1]
  reconstituted CYP11A1 assay, side chain cleavage of cholesterol: pregnenolone produced with Adx M77L compared to WT Adx, at 45 min: 0.6 fold (decrease relative to WT Adx)
  reconstituted CYP11A1 assay: vitamin D3 depletion with Adx M77L compared to WT Adx, at 45 min: 0.7 fold (decrease relative to WT Adx)

B2: bovine Adrenodoxin M77S (natural protein)
chain: SSSEDKITVHFINRDGETLTTKGKIGDSLLDVVVQNNLDIDGFGACEGTLACSTCHLIFEQHIFEKLEAITDEENDSLDLAYGLTDRSRLGCQICLTKAMDNMTVRVPDAVSDARESIDMGMNSSKIE
modifications: uniform 15N labelling in the NMR samples
[1]
  reconstituted CYP11A1 assay: vitamin D3 metabolism with Adx M77S compared to WT Adx, at 45 min: ~0.3 fold (increase relative to WT Adx)

B3: bovine Adrenodoxin, wild type (15N-labeled for NMR) (natural protein)
chain: SSSEDKITVHFINRDGETLTTKGKIGDSLLDVVVQNNLDIDGFGACEGTLACSTCHLIFEQHIFEKLEAITDEENDMLDLAYGLTDRSRLGCQICLTKAMDNMTVRVPDAVSDARESIDMGMNSSKIE
modifications: uniform 15N labelling in the NMR samples
notes: Adrenodoxin (Adx), bovine; Carries a 2Fe-2S cluster; also called Adx; WT Adx; source: Ni-NTA, then size exclusion chromatography (Superdex 75)
[2]
  binding result: binds
